The results in this text go back to patent US20050119454A1.

This assay concerns the target human long isoform dopamine D2 (D2DA) receptor (human), P14416. Nature of the assay: cell-based or functional assay.

Sequence of human long isoform dopamine D2 (D2DA) receptor (human), P14416 (P14416 whole entry, canonical isoform): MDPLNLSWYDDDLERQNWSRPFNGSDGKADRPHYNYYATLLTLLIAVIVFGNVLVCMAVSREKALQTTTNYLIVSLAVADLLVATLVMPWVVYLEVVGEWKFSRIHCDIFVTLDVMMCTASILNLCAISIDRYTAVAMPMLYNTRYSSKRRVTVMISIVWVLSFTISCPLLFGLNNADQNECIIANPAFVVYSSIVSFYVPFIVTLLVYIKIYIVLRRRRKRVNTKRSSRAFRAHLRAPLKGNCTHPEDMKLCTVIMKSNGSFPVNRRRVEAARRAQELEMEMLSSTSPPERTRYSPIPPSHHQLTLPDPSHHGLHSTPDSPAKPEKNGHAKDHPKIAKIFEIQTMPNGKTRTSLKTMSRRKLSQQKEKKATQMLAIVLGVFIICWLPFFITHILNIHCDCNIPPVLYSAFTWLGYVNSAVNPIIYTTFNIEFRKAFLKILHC

B1: H-…-OH (peptide)
peptide: H-ERNRKPYRPKNKYLL-OH
Turning to B1, the EAR response to dopamine, LtK system, paired one-tailed t-test is 69.8 t statistic and the dopamine-induced EAR, CHO cells, paired one-tailed t-test is 1.28 t statistic.

B2: H-…-OH (peptide)
peptide: H-THQAFHYCNKQCLVI-OH
modifications: cysteine pairing not given here
For B2, the potentiation of the dopamine response (EAR), CHO system, paired one-tailed t-test turned out to be 1.31 t statistic and the potentiation of the dopamine response (EAR), LtK system, paired one-tailed t-test came to 0.62 t statistic.

B3: H-…-OH (peptide)
peptide: H-SHQRWEYKGVNCIVY-OH
As to B3, the potentiation of the dopamine-induced increment in total milli-pH units (EAR), CHO system, paired one-tailed t-test was found to be 28.1 t statistic and the potentiation of the dopamine-induced increment in total milli-pH units (EAR), LtK system, paired one-tailed t-test worked out at 13.3 t statistic.

B4: … (peptide)
peptide: ERNRKPLRPKNKYLI
Turning to B4, the EAR response to dopamine, LtK system, paired one-tailed t-test came out at 25.5 t statistic and the dopamine-induced EAR, CHO cells, paired one-tailed t-test stood at 1.54 t statistic.
